In publication PMC5578738 one finds Kd and koff data, which are given here for three substances.

Usually Kd stands for the free concentration of one partner at which half of the binding sites on the other are occupied at equilibrium, for simple one-to-one binding. As a reminder, the koff is the first-order rate constant of dissociation. Read a high koff as a short-lived complex.

In assay [1] the target is Side-VI (CG34114) complete ectodomain, biotinylated (SPR) (Drosophila melanogaster) (UniProt Q0KI85). Kind of assay: SPR; Biacore T100; biotinylated Side-VI captured on an SA chip, Beat-Va or Beat-Vb flowed over; HBSp+ with 500 mM NaCl and 15% glycerol; equilibrium responses fitted to a Langmuir isotherm. Background: In SPR one partner is held on a chip, and binding of the other changes the refractive index at the surface.

Assay [2] addresses Beat-VI complete ectodomain, biotinylated (SPR) (Drosophila melanogaster) (UniProt Q9VAV8). Put plainly: SPR; Biacore 3000; biotinylated Beat-VI or Beat-Ic captured on an SA chip, Side-II or Side-III fragments flowed over; HBSp+ and 1% (w/v) BSA; equilibrium fit, three titration series.
The target in assay [3] is Beat-Ic complete ectodomain, biotinylated (SPR) (Drosophila melanogaster) (UniProt Q7JUP9). The description is as above.
Chain of Beat-Ic complete ectodomain, biotinylated (SPR) (Drosophila melanogaster) (Q7JUP9 entry or part of it): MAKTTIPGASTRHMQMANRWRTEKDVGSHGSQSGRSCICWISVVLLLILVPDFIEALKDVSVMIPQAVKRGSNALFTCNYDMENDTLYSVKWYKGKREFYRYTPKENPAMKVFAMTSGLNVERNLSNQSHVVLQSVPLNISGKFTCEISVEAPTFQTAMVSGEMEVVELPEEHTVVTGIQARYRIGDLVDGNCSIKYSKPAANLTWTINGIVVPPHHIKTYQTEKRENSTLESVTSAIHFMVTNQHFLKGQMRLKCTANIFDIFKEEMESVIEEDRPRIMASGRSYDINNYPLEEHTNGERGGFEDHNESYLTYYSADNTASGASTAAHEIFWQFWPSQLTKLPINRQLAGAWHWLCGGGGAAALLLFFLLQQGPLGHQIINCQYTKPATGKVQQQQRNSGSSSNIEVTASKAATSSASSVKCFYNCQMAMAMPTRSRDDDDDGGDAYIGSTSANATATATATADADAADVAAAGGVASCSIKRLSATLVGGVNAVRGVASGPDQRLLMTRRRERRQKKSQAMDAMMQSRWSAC

Chain of Side-VI (CG34114) complete ectodomain, biotinylated (SPR) (Drosophila melanogaster) (Q0KI85 entry or part of it): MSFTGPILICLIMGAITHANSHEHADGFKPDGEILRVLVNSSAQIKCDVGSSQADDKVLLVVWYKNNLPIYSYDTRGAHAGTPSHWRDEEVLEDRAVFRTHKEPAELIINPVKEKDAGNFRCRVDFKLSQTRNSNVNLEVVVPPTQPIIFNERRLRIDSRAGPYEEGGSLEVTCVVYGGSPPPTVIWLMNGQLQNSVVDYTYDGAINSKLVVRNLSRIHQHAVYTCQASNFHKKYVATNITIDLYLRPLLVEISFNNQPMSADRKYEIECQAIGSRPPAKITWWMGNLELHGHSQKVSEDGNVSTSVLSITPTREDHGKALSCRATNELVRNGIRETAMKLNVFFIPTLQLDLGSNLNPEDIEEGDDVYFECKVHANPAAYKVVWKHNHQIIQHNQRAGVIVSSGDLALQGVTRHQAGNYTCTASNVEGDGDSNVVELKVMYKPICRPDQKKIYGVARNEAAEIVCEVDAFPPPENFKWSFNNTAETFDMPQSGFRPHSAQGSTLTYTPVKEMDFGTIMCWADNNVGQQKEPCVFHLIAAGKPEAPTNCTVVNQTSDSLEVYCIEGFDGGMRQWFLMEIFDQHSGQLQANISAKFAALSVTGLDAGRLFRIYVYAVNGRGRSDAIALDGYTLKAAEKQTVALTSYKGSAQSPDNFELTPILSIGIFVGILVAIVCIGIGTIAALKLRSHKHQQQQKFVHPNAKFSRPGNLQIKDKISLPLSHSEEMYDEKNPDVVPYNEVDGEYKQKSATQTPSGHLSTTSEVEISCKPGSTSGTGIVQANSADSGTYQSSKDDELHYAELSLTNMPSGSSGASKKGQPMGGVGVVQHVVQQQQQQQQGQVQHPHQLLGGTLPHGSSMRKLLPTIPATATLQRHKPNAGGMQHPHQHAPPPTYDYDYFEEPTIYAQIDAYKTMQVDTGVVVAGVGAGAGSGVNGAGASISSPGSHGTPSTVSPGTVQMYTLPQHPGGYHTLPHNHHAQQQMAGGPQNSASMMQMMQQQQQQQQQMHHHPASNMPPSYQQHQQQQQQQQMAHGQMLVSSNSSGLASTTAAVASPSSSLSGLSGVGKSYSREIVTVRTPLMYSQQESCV
Chain of Beat-VI complete ectodomain, biotinylated (SPR) (Drosophila melanogaster) (Q9VAV8 entry or part of it): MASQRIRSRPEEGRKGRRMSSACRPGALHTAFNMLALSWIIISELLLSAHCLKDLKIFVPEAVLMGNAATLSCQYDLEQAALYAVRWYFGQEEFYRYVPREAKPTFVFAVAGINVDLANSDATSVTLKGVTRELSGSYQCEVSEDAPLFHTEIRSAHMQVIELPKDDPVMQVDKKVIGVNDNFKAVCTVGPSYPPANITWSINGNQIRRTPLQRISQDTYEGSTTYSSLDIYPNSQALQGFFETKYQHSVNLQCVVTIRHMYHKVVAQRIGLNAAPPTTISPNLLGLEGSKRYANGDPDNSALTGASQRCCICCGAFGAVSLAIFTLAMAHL

In assay [1], “Beat-Vb complete ectodomain (SPR) (from UniProt Q9VG19 1-328) (domain or fragment)” showed a Kd of 2300 nM and a koff above 0.5 s⁻¹.
On to “Side-II N-terminal single IgSF domain (SPR) (from UniProt Q59DZ1 1-1064) (domain or fragment)”, for which the Kd in assay [2] was found to be 2780 nM. This lies in the single-digit micromolar range.
Consider “Side-III N-terminal single IgSF domain (SPR) (domain or fragment)”, for which, in assay [3], the Kd worked out at 63500 nM.
